We go through 2 proteins from paper PMC4959569.

The nature of series [1]: Q-PCR normalised to EWS-FLI1 protein level. The note with it: control: mock treated SK-N-MC cells.
The nature of series [2]: Western blot densitometry, antibody 7.3. The following applies: glycan lost; control: untreated SK-N-MC cells. On the technique in general: Immunoblotting shows a protein as a band on a membrane.

B1: EWS-FLI1: DON (protein)
parent chain: MASTDYSTYSQAAAQQGYSAYTAQPTQGYAQTTQAYGQQSYGTYGQPTDVSYTQAQTTATYGQTAYATSYGQPPTGYTTPTAPQAYSQPVQGYGTGAYDTTTATVTTTQASYAAQSAYGTQPAYPAYGQQPAATAPTRPQDGNKPTETSQPQSSTGGYNQPSLGYGQSNYSYPQVPGSYPMQPVTAPPSYPPTSYSSTQPTSYDQSSYSQQNTYGQPSSYGQQSSYGQQSSYGQQPPTSYPPQTGSYSQAPSQYSQQSSSYGQQSSFRQDHPSSMGVYGQESGGFSGPGENRSMSGPDNRGRGRGGFDRGGMSRGGRGGGRGGMGSAGERGGFNKPGGPMDEGPDLDLGPPVDPDEDSDNSAIYVQGLNDSVTLDDLADFFKQCGVVKMNKRTGQPMIHIYLDKETGKPKGDATVSYEDPPTAKAAVEWFDGKDFQGSKLKVSLARKKPPMNSMRGGLPPREGRGMPPPLRGGPGGPGGPGGPMGRMGGRGGDRGGFPPRGPRGSRGNPSGGGNVQHRAGDWQCPNPGCGNQNFAWRTECNQCKAPKPEGFLPPPFPPPGGDRGRGGPGGMRGGRGGLMDRGGPGGMFRGGRGGDRGGFRGGRGMDRGGFGGGRRGGPGGPPGPLMEQMGGRRGGRGGPGKMDKGEHRQERRDRPY
For B1, the “other: transcriptional repression of target gene” value in series [1] (glycan lost) is listed as “no change”. The “expression_or_secretion, percent_of_wt” value in series [2] is recorded as “decreases”.

B2: EWS-FLI1: STZ (protein)
parent chain: B1 parent chain
Turning to B2, in series [1] (glycan gained), the “other: transcriptional activation of target gene, fold_change” value is listed as “no change” and the “other: transcriptional repression of target gene” value was “no change”.
